US20250002605A1 (WUHAN YZY BIOPHARMA, published 2025)

Tests used:
[1] = target: T1, human EpCAM antigen (SB, Cat: 10694-H08H) (human, UniProt P16422 24-265); assay: SPR (Biacore T200), antigen amine-coupled on CM5, antibody as analyte, 1:1 fit; D0 sample
T1 construct: Bought antigen immobilised on a CM5 chip
T1 sequence (looked up): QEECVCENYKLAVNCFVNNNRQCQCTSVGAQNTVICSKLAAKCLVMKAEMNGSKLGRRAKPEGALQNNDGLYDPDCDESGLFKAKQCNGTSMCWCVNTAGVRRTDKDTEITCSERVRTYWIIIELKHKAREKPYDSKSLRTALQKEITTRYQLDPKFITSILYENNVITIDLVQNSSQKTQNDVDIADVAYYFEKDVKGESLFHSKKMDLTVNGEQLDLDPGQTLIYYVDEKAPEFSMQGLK

[2] = target: T1, human EpCAM antigen (SB, Cat: …); assay: SPR (Biacore T200), antigen amine-coupled on CM5, antibody as analyte, 1:1 fit; D14 sample after 14 days at 40 C
[3] = target: T2, human EpCAM on the cell surface (human, UniProt P16422 24-314); assay: cell-based or functional assay
T2 sequence (looked up): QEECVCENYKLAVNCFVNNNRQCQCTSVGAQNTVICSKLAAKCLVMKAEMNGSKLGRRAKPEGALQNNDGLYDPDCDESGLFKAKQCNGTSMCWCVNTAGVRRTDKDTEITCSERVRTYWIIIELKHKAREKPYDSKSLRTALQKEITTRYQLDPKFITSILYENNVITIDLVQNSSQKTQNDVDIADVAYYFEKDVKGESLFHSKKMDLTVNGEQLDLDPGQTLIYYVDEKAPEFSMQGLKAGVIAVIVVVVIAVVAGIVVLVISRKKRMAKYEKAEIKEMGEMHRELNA

CD3 on Jurkat cells [4] = assay: cell-based or functional assay
[5] = target: T2, human EpCAM on the cell surface; assay: flow cytometry (FACS) on HCT116 cells, PE anti-human IgG Fc detection
[6] = target: T2, human EpCAM on the cell surface; assay: cell-based or functional assay; remark: listed apart in the source
CD3 on Jurkat cells [7] = assay: cell-based or functional assay; remark: listed apart in the source
[8] = target: human CD3 antigen (SB, Cat: CT038-H2508H) (human, UniProt P07766 23-126; P04234 22-105); assay: SPR (Biacore T200), antigen amine-coupled on CM5, antibody as analyte, 1:1 fit; D0 sample

B1: M701A (bispecific antibody, human IgG1, kappa)
light: ELVMTQSPSSLTVTAGEKVTMSCKSSQSLLNSGNQKNYLTWYQQKPGQPPKLLIYWASTRESGVPDRFTGSGSGTDFTLTISSVQAEDLAVYYCQNDYSYPLTFGAGTKLEIKRTVAAPSVFIFPPSDEQLKSGTASVVCLLNNFYPREAKVQWKVDNALQSGNSQESVTEQDSKDSTYSLSSTLTLSKADYEKHKVYACEVTHQGLSSPVTKSFNRGEC
heavy: EVQLLEQSGAELVRPGTSVKISCKASGYAFTNYWLGWVKQRPGHGLEWIGDIFPGSGNIHYNEKFKGKATLTADKSSSTAYMQLSSLTFEDSAVYFCARLRNWDEPMDYWGQGTTVTVSSASTKGPSVFPLAPSSKSTSGGTAALGCLVKDYFPEPVTVSWNSGALTSGVHTFPAVLQSSGLYSLSSVVTVPSSSLGTQTYICNVNHKPSNTKVDKKVEPKSCDKTHTCPPCPAPELLGGPSVFLFPPKPKDTLMISRTPEVTCVVVDVSHEDPEVKFNWYVDGVEVHNAKTKPREEQYNSTYRVVSVLTVLHQDWLNGKEYKCKVSNKALPAPIEKTISKAKGQPREPQVYTLPPSRDELTKNQVSLWCLVKGFYPSDIAVEWESNGQPENNYDTTPPVLDSDGSFFLYSDLTVDKSRWQQGNVFSCSVMHEALHNHYTQKSLSLSPGK
chain: not shown
notes: YBODY format; also called bispecific antibody M701A
Kd [1]: 17.1 nM
Kd [2]: 17.3 nM
cell bridging of HCT116 and Jurkat cells (CFSE/PKH26 double-positive cells, flow cytometry) [3]: ~40 % of the total PKH26-positive cells
cell bridging of HCT116 and Jurkat cells (CFSE/PKH26 double-positive cells, flow cytometry) (CD3 on Jurkat cells [4]): ~40 % of the total PKH26-positive cells
EC50 [5]: 3.56 nM
EC50 (read off the curve), cell bridging of HCT116 and Jurkat [panel C] [6]: ~10 ng/mL
EC50 (read off the curve), cell bridging of HCT116 and Jurkat [panel C] (CD3 on Jurkat cells [7]): ~10 ng/mL

B2: M701J (bispecific antibody, human IgG1, kappa)
light: ELVMTQSPSSLTVTAGEKVTMSCKSSQSLLNSGNQKNYLTWYQQKPGQPPKLLIYWASTRESGVPDRFTGSGSGTDFTLTISSVQAEDLAVYYCQNDYSYPLTFGAGTKLEIKRTVAAPSVFIFPPSDEQLKSGTASVVCLLNNFYPREAKVQWKVDNALQSGNSQESVTEQDSKDSTYSLSSTLTLSKADYEKHKVYACEVTHQGLSSPVTKSFNRGEC
heavy: EVQLLEQSGAELVRPGTSVKISCKASGYAFTNYWLGWVKQRPGHGLEWIGDIFPGSGNIHYNEKFKGKATLTADKSSSTAYMQLSSLTFEDSAVYFCARLRNWDEPMDYWGQGTTVTVSSASTKGPSVFPLAPSSKSTSGGTAALGCLVKDYFPEPVTVSWNSGALTSGVHTFPAVLQSSGLYSLSSVVTVPSSSLGTQTYICNVNHKPSNTKVDKKVEPKSCDKTHTCPPCPAPPVAGPSVFLFPPKPKDTLMISRTPEVTCVVVDVSHEAPEVQFNWYVDGVEVHNAKTKPREEQFNSTFRVVSVLTVVHQDWLNGKEYKCKVSNKGLPAPIEKTISKTKGQPREPQVYTLPPCRDELTKNQVSLWCLVKGFYPSDIAVEWESNGQPENNYKTTPPVLDSDGSFFLYSKLTVDKSRWQQGNVFSCSVMHEALHNHYTQKSLSLSPGK
chain: not shown
notes: YBODY format; also called bispecific antibody M701J
Kd [1]: 18.2 nM
Kd [2]: 18.7 nM
EC50 [5]: 3.78 nM

B3: M701G (bispecific antibody, human IgG1, kappa)
light: ELVMTQSPSSLTVTAGEKVTMSCKSSQSLLNSGNQKNYLTWYQQKPGQPPKLLIYWASTRESGVPDRFTGSGSGTDFTLTISSVQAEDLAVYYCQNDYSYPLTFGAGTKLEIKRTVAAPSVFIFPPSDEQLKSGTASVVCLLNNFYPREAKVQWKVDNALQSGNSQESVTEQDSKDSTYSLSSTLTLSKADYEKHKVYACEVTHQGLSSPVTKSFNRGEC
heavy: EVQLLEQSGAELVRPGTSVKISCKASGYAFTNYWLGWVKQRPGHGLEWIGDIFPGSGNIHYNEKFKGKATLTADKSSSTAYMQLSSLTFEDSAVYFCARLRNWDEPMDYWGQGTTVTVSSASTKGPSVFPLAPSSKSTSGGTAALGCLVKDYFPEPVTVSWNSGALTSGVHTFPAVLQSSGLYSLSSVVTVPSSSLGTQTYICNVNHKPSNTKVDKKVEPKSCDKTHTCPPCPAPELLGGPSVFLFPPKPKDTLMISRTPEVTCVVVDVSHEDPEVKFNWYVDGVEVHNAKTKPREEQYNSTYRVVSVLTVLHQDWLNGKEYKCKVSNKALPAPIEKTISKAKGQPREPQVYTLPPSRDELTKNQVSLWCLVKGFYPSDIAVEWESNGQPENNYDTTPPVLDSDGSFFLYSDLTVDKSRWQQGNVFSCSVMHEALHNHYTQKSLSLSPGK
chain: EVQLVESGGGLVQPGGSLRLSCAASGYSFTGYTMNWVRQAPGKGLEWVALINPYKGVSTYNQKFKDRFTISVDKSKNTAYLQMNSLRAEDTAVYYCARSGYYGDSDWYFDVWGQGTLVTVSSGGGGSGGGGSGGGGSDIQMTQSPSSLSASVGDRVTITCRASQDIRNYLNWYQQKPGKAPKLLIYYTSRLESGVPSRFSGSGSGTDYTLTISSLQPEDFATYYCQQGNTLPWTFGQGTKVEIKGAAAEPKSCDKTHTCPPCPAPELLGGPSVFLFPPKPKDTLMISRTPEVTCVVVDVSHEDPEVKFNWYVDGVEVHNAKTKPREEQYNSTYRVVSVLTVLHQDWLNGKEYKCKVSNKALPAPIEKTISKAKGQPREPQVYTLPPSRDELTKNQVSLTCRVKGFYPSDIAVEWESNGQPENNYKTTPPVLKSDGSFFLASKLTVDKSRWQQGNVFSCSVMHEALHNHYTQKSLSLSPGK
notes: YBODY format; also called bispecific antibody M701G
Kd [8]: 18.8 nM
Kd [1]: 19.7 nM

B4: M701 (bispecific antibody, human IgG1, kappa)
light: ELVMTQSPSSLTVTAGEKVTMSCKSSQSLLNSGNQKNYLTWYQQKPGQPPKLLIYWASTRESGVPDRFTGSGSGTDFTLTISSVQAEDLAVYYCQNDYSYPLTFGAGTKLEIKRTVAAPSVFIFPPSDEQLKSGTASVVCLLNNFYPREAKVQWKVDNALQSGNSQESVTEQDSKDSTYSLSSTLTLSKADYEKHKVYACEVTHQGLSSPVTKSFNRGEC
heavy: EVQLLEQSGAELVRPGTSVKISCKASGYAFTNYWLGWVKQRPGHGLEWIGDIFPGSGNIHYNEKFKGKATLTADKSSSTAYMQLSSLTFEDSAVYFCARLRNWDEPMDYWGQGTTVTVSSASTKGPSVFPLAPSSKSTSGGTAALGCLVKDYFPEPVTVSWNSGALTSGVHTFPAVLQSSGLYSLSSVVTVPSSSLGTQTYICNVNHKPSNTKVDKKVEPKSCDKTHTCPPCPAPELLGGPSVFLFPPKPKDTLMISRTPEVTCVVVDVSHEDPEVKFNWYVDGVEVHNAKTKPREEQYNSTYRVVSVLTVLHQDWLNGKEYKCKVSNKALPAPIEKTISKAKGQPREPQVYTLPPSRDELTKNQVSLWCLVKGFYPSDIAVEWESNGQPENNYDTTPPVLDSDGSFFLYSDLTVDKSRWQQGNVFSCSVMHEALHNHYTQKSLSLSPGK
chain: not shown
notes: also called bispecific antibody M701
killing EC50 (PBMC effector cells, HCT116 target cells) [3]: 69.2 ng/mL
EC50 [5]: 10.5 nM
